Source: US7223730
Where “and” joins values, the source holds several entries; their conditions need not be identical. Equal entries are not always repeated.

Columns and labels:
human fibrinogen = human fibrinogen (UniProt P02671)

antithrombosis enzyme purified from the snake venom of Southern-Anhui Agkistrodon acutus
proteolytic activity (azocasein hydrolysis, absorbance at 390 nm) (azocasein): No proteolytic activity was detected in this assay
fibrinolytic activity (fibrin): 1 fibrinolytic activity unit per mg protein
fibrinolytic activity (fibrin-plate-clearance assay) (fibrin; scale: fibrinolytic activity units per mg of enzyme): 1 and 3
fibrinogen cleavage (human fibrinogen): One fibrinogen cleavage site was found to be Met 235-Pro236 of the α chain of human fibrinogen
